Assay results as given in publication PMC11927755.

Target: preformed microtubules (polymerized tubulin, paclitaxel-stabilised) (UniProt P02550)
Test: co-sedimentation; microtubule spin-down: 1 μM tau with paclitaxel-stabilised preformed microtubules in general tubulin buffer (80 mM PIPES pH 7.0, 1 mM MgCl2, 1 mM EGTA), 30 min at RT, through a sucrose cushion at 100,000 RCF for 40 min, pellet washed twice; tau (Tau5) and tubulin (5H1) in supernatant and pellet by Western blot; % tau in pellet

Sequence of UniProt P02550 (P02550 whole entry, looked up): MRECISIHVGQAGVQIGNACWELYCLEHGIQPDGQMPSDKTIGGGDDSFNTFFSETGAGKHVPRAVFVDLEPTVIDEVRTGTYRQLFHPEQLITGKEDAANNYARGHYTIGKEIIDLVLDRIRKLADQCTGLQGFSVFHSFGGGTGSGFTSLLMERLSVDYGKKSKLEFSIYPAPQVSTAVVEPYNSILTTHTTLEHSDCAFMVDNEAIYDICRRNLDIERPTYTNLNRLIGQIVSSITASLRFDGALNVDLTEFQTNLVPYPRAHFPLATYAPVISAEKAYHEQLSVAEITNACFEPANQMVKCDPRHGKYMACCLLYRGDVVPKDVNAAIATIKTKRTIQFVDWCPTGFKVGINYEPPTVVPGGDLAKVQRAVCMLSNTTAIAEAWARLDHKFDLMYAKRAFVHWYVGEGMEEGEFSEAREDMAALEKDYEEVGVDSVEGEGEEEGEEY

percent decrease of tau in the pelleted microtubule fraction relative to unmodified hT39: 45%
Substance: O-GlcNAc modified hT39 (Glc hT39, 2N3R tau) (from UniProt P10636-5 1-410) (natural protein)
